We go through 13 substances from publication PMC10228794.

The target of the experiment is 10.17DT SOSIP. Description: SPR. As to conditions: mutated DH270 UCA antibodies were injected at 100nM; 3000–4000 RUs of 10.17DT on the sensor chip; parent: est. 43; read off a plot.
As for “DH270 UCA IgG (unmutated common ancestor of bnAb DH270.6) I102D”, the response amounted to 6.5 RU.
On to “DH270 UCA IgG (unmutated common ancestor of bnAb DH270.6) I102L”, for which the response turned out to be 29 RU.
For the substance “DH270 UCA IgG (unmutated common ancestor of bnAb DH270.6) I102N”, the response turned out to be 43 RU.
Consider “DH270 UCA IgG (unmutated common ancestor of bnAb DH270.6) I102S”, for which the response was 34 RU.
For the substance “DH270 UCA IgG (unmutated common ancestor of bnAb DH270.6) I102V”, the response is 54 RU.
To “DH270 UCA IgG (unmutated common ancestor of bnAb DH270.6) W101F” belongs 36 RU; to “DH270 UCA IgG (unmutated common ancestor of bnAb DH270.6) W101G”, 3.5 RU; to “DH270 UCA IgG (unmutated common ancestor of bnAb DH270.6) W101R”, 0 RU.
Turning to “DH270 UCA IgG (unmutated common ancestor of bnAb DH270.6) W101Y”, the response stood at 15 RU.
With “DH270 UCA IgG (unmutated common ancestor of bnAb DH270.6) Y111F”, the response is 38 RU.
In the case of “DH270 UCA IgG (unmutated common ancestor of bnAb DH270.6) Y111H”, the response came to 25 RU.
For “DH270 UCA IgG (unmutated common ancestor of bnAb DH270.6) Y111N”, the response worked out at 0 RU.
The same measure for “DH270 UCA IgG (unmutated common ancestor of bnAb DH270.6) Y111W”: 26 RU.
